Laboratory results published in article PMC8639217, “Structure of New Binary and Ternary DNA Polymerase Complexes From Bacteriophage RB69”.

Biological target: T1, RB69 DNA polymerase exo- (RB69pol) (Enterobacteria phage RB69, UniProt Q38087 1-903, D222A;D327A)
T1 sequence: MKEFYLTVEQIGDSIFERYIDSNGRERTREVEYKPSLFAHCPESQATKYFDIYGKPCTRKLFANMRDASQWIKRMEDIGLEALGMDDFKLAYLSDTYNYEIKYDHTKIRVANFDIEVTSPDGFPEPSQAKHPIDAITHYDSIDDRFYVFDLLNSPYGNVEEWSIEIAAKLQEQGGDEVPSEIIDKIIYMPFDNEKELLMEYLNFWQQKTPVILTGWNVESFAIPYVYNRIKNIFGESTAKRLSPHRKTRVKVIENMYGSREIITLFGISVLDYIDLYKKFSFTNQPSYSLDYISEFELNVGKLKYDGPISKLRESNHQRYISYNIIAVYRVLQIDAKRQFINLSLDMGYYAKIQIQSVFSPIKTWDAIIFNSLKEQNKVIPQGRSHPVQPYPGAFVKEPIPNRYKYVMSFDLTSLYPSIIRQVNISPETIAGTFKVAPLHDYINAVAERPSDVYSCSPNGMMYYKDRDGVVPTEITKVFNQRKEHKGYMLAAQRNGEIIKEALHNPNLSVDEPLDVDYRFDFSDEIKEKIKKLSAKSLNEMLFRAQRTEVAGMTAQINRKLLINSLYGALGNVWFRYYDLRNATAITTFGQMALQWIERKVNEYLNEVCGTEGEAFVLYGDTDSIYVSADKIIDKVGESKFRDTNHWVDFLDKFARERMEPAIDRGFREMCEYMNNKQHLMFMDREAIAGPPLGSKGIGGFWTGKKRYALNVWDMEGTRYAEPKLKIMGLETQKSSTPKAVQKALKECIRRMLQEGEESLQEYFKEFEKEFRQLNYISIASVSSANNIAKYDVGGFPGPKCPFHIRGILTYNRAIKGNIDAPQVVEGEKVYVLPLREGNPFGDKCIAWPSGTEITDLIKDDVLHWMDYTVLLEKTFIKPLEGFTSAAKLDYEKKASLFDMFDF
Experiment: X-ray crystallography (2.2 A); MolA: closed ternary complex with dUpNpp, single Ca2+ at B site; rGMP in NTD; Complex (1:1.2 protein:DNA) in 10 mM Tris-HCl pH 8.0, 50 mM NaCl, 10 mM CaCl2, 5 mM DTT, 5% glycerol, 1 mM dUpNpp, 12 h 4 C; crystals at 21 C in 50 mM Na cacodylate pH 5.0, 2-7% isopropanol, 5 mM MgCl2, 2 mM NaCl, 12 mM spermine
Settings: protein: recombinant; tags: N-terminal His6 removed with TEV protease; 15 bp; 5' overhang 1 nt on primer, 5' overhang 4 nt on template; 1:1

B1: primer/template (P/T) duplex (dsDNA)
DNA 1: GGAGCGGACTGCTTAC
DNA 2: TCAAGTAAGCAGTCCGCTC
binding result: binds
